From the supplement of paper PMC7125110
± gives the standard error. For part of these data: Fewer inactive variants are shown than the library holds.

B1: glmS ribozyme (parent)
chain: AUAAAAGCGCCAGAACUACAGAAAUGUAGUUGACGAGGAGGAGGUUUAUCGAAUUUUCGGCGGAUGCCUCCAAA

Columns and labels:
Conditions in all cases: with glucosamine-6-phosphate
[1] = variants of: B1; experiment: kcat; higher = faster cleavage; RNA array
Procedure, shortened: (§1)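 E. coli RNA polymerase transcribed barcoded ribozyme variants in situ on sequenced MiSeq chips, which were tracked via a hybridised Cy3 probe at 37 °C. Tiles were imaged over ~14 h after glucosamine-6-phosphate (40 μM to 10 mM) in HEPES/KCl/Mg(OAc)2 buffer was flowed in. Normalised per-tile medians were fit to one- or two-exponential decays for kobs, and kcat and KM came from weighted Michaelis–Menten fits.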

[2] = variants of: B1; experiment: KM; higher = weaker cofactor use; RNA array
Procedure, shortened: as §1

[3] = variants of: B1; experiment: self-cleavage kobs at 160 uM GlcN6P; higher = faster cleavage; RNA array
Procedure, shortened: as §1

[4] = variants of: B1; experiment: self-cleavage kobs at 640 uM GlcN6P; higher = faster cleavage; RNA array
Procedure, shortened: as §1

[5] = variants of: B1; experiment: self-cleavage kobs at 2500 uM GlcN6P; higher = faster cleavage; RNA array
Procedure, shortened: as §1

[6] = variants of: B1; experiment: self-cleavage kobs at 10000 uM GlcN6P; higher = faster cleavage; RNA array
Procedure, shortened: as §1

[7] = variants of: B1; experiment: self-cleavage kobs at 40 uM GlcN6P; higher = faster cleavage; RNA array
Procedure, shortened: as §1

AUAAAAGCGCCAGCACUACAGAAAUGUAGUUGACGAGGAGGAGGUUUAUCGAAUUUUCGGCGGAUGCCUGCAAA
kcat [1]: 0.00014 ± 1.4e-05 s⁻¹
KM [2]: 866 ± 250 µM
self-cleavage kobs at 160 uM GlcN6P [3]: 3.24e-05 ± 1.3e-05 s⁻¹
self-cleavage kobs at 640 uM GlcN6P [4]: 5.83e-05 ± 7.3e-06 s⁻¹
self-cleavage kobs at 2500 uM GlcN6P [5]: 9.83e-05 ± 1.1e-05 s⁻¹
self-cleavage kobs at 10000 uM GlcN6P [6]: 0.000134 ± 1.3e-05 s⁻¹

AUAAAAGCGCCAGAACUACAGAAAUGUAGUUGACGAGGAGGAGGUUUAUUGACUUUUCGGCGGAUGCCUCCAAA
kcat [1]: 1.18e-05 ± 1.3e-06 s⁻¹

AUAAAAGCGCCAGAACUACAGAAAUGUAGUUGACGAGGAGGAGGUUUAUCGAAUUUUCGGCGGAGGUUUCCAAA
kcat [1]: 9.98e-05 ± 3.8e-05 s⁻¹
self-cleavage kobs at 2500 uM GlcN6P [5]: 5.84e-05 ± 1.3e-05 s⁻¹
self-cleavage kobs at 10000 uM GlcN6P [6]: 6.91e-05 ± 2.9e-05 s⁻¹

AUAAAAGCGCCAGAACUACAGAAAUGUAGUUGACGAGGAGGAGGUUUAUCGAAUUUUCGGCGGAUCCUUCGAAA
kcat [1]: < 1e-05 s⁻¹
self-cleavage kobs at 160 uM GlcN6P [3]: < 1e-05 s⁻¹

AUAAAAGCGCCAGAACUACAGAAAUGUAGGUGACGAGGAGGAGGUUUAUCGAAUUGUCGGCGGAUGCCUCCAAA
kcat [1]: 0.00526 ± 0.0018 s⁻¹
self-cleavage kobs at 40 uM GlcN6P [7]: 0.000182 ± 3.7e-05 s⁻¹
self-cleavage kobs at 640 uM GlcN6P [4]: 0.00189 ± 0.00062 s⁻¹
self-cleavage kobs at 2500 uM GlcN6P [5]: 0.00266 ± 0.00073 s⁻¹
self-cleavage kobs at 10000 uM GlcN6P [6]: 0.00705 ± 0.0016 s⁻¹

AUAAAAGCGCCACAACUACAGAAAUGUAGUUAACGAGGAGGAGGUUUAUCGAAUUUUCGGCGGAUGCCUCCAAA
kcat [1]: 0.00943 ± 0.0032 s⁻¹
KM [2]: 3620 ± 1600 µM
self-cleavage kobs at 40 uM GlcN6P [7]: 0.000142 ± 1.5e-05 s⁻¹
self-cleavage kobs at 160 uM GlcN6P [3]: 0.000338 ± 6.2e-05 s⁻¹
self-cleavage kobs at 640 uM GlcN6P [4]: 0.00124 ± 0.00016 s⁻¹
self-cleavage kobs at 2500 uM GlcN6P [5]: 0.00305 ± 0.00052 s⁻¹
self-cleavage kobs at 10000 uM GlcN6P [6]: 0.00781 ± 0.00085 s⁻¹

AUAAAAGCGCCAGAACUACAGAAAUGUAGUUGACGAGGAGGAGGUUUAUCGAAUUUUCGGCGGAUGGGUCCAAA
kcat [1]: 4.53e-05 ± 9.2e-06 s⁻¹
self-cleavage kobs at 160 uM GlcN6P [3]: 6.2e-05 ± 7.7e-06 s⁻¹
self-cleavage kobs at 640 uM GlcN6P [4]: 5.01e-05 ± 6.5e-06 s⁻¹
self-cleavage kobs at 2500 uM GlcN6P [5]: 3.7e-05 ± 4.7e-06 s⁻¹

AUAAAAGCGCCAGAACUACAGAAAUGUAGCUGACGAGGAGGAGGUUUAUCGAAUUUUCGGCGGAUGACUCCAAA
kcat [1]: 8.57e-05 ± 7.5e-06 s⁻¹
self-cleavage kobs at 640 uM GlcN6P [4]: 7.21e-05 ± 1.3e-05 s⁻¹
self-cleavage kobs at 2500 uM GlcN6P [5]: 6.84e-05 ± 1.1e-05 s⁻¹
self-cleavage kobs at 10000 uM GlcN6P [6]: 8.63e-05 ± 8.9e-06 s⁻¹

AUAAAAGCGCCAGAACUACAGAAAUGUAGUUGCCGAGGAGGAGGUUUAUCGAAUUUUCGGAGGAUGCCUCCAAA
kcat [1]: < 1e-05 s⁻¹
self-cleavage kobs at 10000 uM GlcN6P [6]: < 1e-05 s⁻¹

AUAAAAGCGCCAGAACUACAGAAAUGUAGUUGACGAGGAGGAGGUUUAUCGAAUUUUCGACGGAUGCCUCCAAA
kcat [1]: 2.13e-05 ± 1.7e-06 s⁻¹
self-cleavage kobs at 40 uM GlcN6P [7]: < 1e-05 s⁻¹
self-cleavage kobs at 640 uM GlcN6P [4]: < 1e-05 s⁻¹
self-cleavage kobs at 2500 uM GlcN6P [5]: 2.19e-05 ± 2.6e-06 s⁻¹
self-cleavage kobs at 10000 uM GlcN6P [6]: 1.98e-05 ± 1.2e-06 s⁻¹
